Source: the supplement of paper PMC9233669
This sample holds only a part of the variants without activity.

Key:
biotinyl-Leu-oxazolone = experiment: self-aminoacylation, catalytic enhancement (BLO) (fold over background); higher = more active; k-Seq, kA / k0A0; sequences stand for … in GGGAAUGGAUCCACAUCUACGAAUUC…UUCACUGCAGACUUGACGAAGCUG
In short: (§1)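 Catalytic enhancement equals the median kA over the uncatalyzed rate, the latter read from the low-activity peak of a bimodal Gaussian fit. Values of kA came from fitting each sequence's fraction reacted to a pseudo-first-order model, with 1000 bootstraps. Reacted RNA was captured with streptavidin and quantified by triplicate qPCR and Illumina sequencing after 90 minutes at room temperature with 2–1250 μM biotinyl-aminoacyl-oxazolone and 0.43 μM mutagenized RNA pools bearing a 21-nt variable region.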

biotinyl-Met-oxazolone = experiment: self-aminoacylation, catalytic enhancement (BMO) (fold over background); higher = more active; k-Seq, kA / k0A0; sequences stand for … in GGGAAUGGAUCCACAUCUACGAAUUC…UUCACUGCAGACUUGACGAAGCUG
In short: as §1

biotinyl-Ile-oxazolone = experiment: self-aminoacylation, catalytic enhancement (BIO) (fold over background); higher = more active; k-Seq, kA / k0A0; sequences stand for … in GGGAAUGGAUCCACAUCUACGAAUUC…UUCACUGCAGACUUGACGAAGCUG
In short: as §1

biotinyl-Trp-oxazolone = experiment: self-aminoacylation, catalytic enhancement (BWO) (fold over background); higher = more active; k-Seq, kA / k0A0; sequences stand for … in GGGAAUGGAUCCACAUCUACGAAUUC…UUCACUGCAGACUUGACGAAGCUG
In short: as §1

biotinyl-Phe-oxazolone = experiment: self-aminoacylation, catalytic enhancement (BFO) (fold over background); higher = more active; k-Seq, kA / k0A0; sequences stand for … in GGGAAUGGAUCCACAUCUACGAAUUC…UUCACUGCAGACUUGACGAAGCUG
In short: as §1

biotinyl-Val-oxazolone = experiment: self-aminoacylation, catalytic enhancement (BVO) (fold over background); higher = more active; k-Seq, kA / k0A0; sequences stand for … in GGGAAUGGAUCCACAUCUACGAAUUC…UUCACUGCAGACUUGACGAAGCUG
In short: as §1

Row | Sequence | self-aminoacylation (biotinyl-Leu-oxazolone) | self-aminoacylation (biotinyl-Met-oxazolone) | self-aminoacylation (biotinyl-Ile-oxazolone) | self-aminoacylation (biotinyl-Trp-oxazolone) | self-aminoacylation (biotinyl-Phe-oxazolone) | self-aminoacylation (biotinyl-Val-oxazolone)
1 | AAGUUUGCUAAUAUUCGCAAU [Fam3.1 aminoacylation ribozyme variant] | 1.16 | 1.11 | 1.31 | 1.33 | 1.32 | 1.05
2 | AAUCACCUAGGUCAUCGGGAG [Fam2.2 aminoacylation ribozyme variant] | 1.51 | 1.89 | 1.67 | 1.55 | 1.94 | 2.17
3 | AUACACCUAGGUCACCGGGUG [Fam2.2 aminoacylation ribozyme variant] | 3.78 | 3.09 | 3.29 | 3.79 | 23.3 | 3.23
4 | AUUAUCCUGGUCAUCGACUGA [Fam2.1 aminoacylation ribozyme variant] | 0.941 | 0.65 | 0.875 | 0.498 | 0.418 | 0.785
5 | AUUACCCUGGUCAUUAAGUGA [Fam2.1 aminoacylation ribozyme variant] | 10.3 | 11.2 | 4.88 | 13.4 | 55.5 | 5.31
6 | AUUCACCGAGGUCAUCGGGGG [Fam2.2 aminoacylation ribozyme variant] | 2.65 | 2.95 | 2.59 | 3.16 | 7.01 | 2.71
7 | AUUACGCUGGUCAUCGUGUGA [Fam2.1 aminoacylation ribozyme variant] | 2.59 | 2.48 | 1.62 | 3 | 15.4 | 1.6
8 | AUCACCCUGGUCAUCGGGUGA [Fam2.1 aminoacylation ribozyme variant] | 9.48 | 9.05 | 5.17 | 14.1 | 33.4 | 5.27
9 | AUCACCCUGGUGAUCGAGUGA [Fam2.1 aminoacylation ribozyme variant] | 8.91 | 7.25 | 3.57 | 8.41 | 54.1 | 3.87
10 | AUUACCCUGGUCAUCUAGUCA [Fam2.1 aminoacylation ribozyme variant] | 0.616 | 0.578 | 0.753 | 0.455 | 0.712 | 0.827
11 | AUUUACCUAGGACAUCGGGUG [Fam2.2 aminoacylation ribozyme variant] | 3.45 | 2.48 | 2.26 | 2.29 | 10.9 | 2.23
12 | AUUACCCUGGUAAUGGAGUGA [Fam2.1 aminoacylation ribozyme variant] | 8.53 | 8.43 | 3.32 | 9.08 | 55.9 | 3.73
13 | AUUACCCUGGUCAUCGGGUAA [Fam2.1 aminoacylation ribozyme variant] | 38.2 | 35.6 | 11.4 | 42.4 | 208 | 16
14 | AUUACCGUGGCCAUCGAGUGA [Fam2.1 aminoacylation ribozyme variant] | 5.84 | 4.71 | 3.2 | 8.11 | 32.8 | 3.89
15 | AAGUUUGCUAAGAGUAGCAAG [Fam3.1 aminoacylation ribozyme variant] | 1.21 | 1.1 | 0.857 | 1.17 | 1.3 | 0.727
16 | AUUACCCUGGUCAUCGAGUAC [Fam2.1 aminoacylation ribozyme variant] | 5.94 | 6.05 | 2.32 | 4.57 | 17.2 | 3.03
17 | AUUAGCCUGGUGAUCGAGUGA [Fam2.1 aminoacylation ribozyme variant] | 7.61 | 7.43 | 3.98 | 8.57 | 41.1 | 3.62
18 | AAUGACCUAGGUCAUCGGGUG [Fam2.2 aminoacylation ribozyme variant] | 4.85 | 4.56 | 3.66 | 5.22 | 26.1 | 3.56
19 | AAGUUUGCACAUAGUCGCAAG [Fam3.1 aminoacylation ribozyme variant] | 0.586 | 0.656 | 0.804 | 0.682 | 0.76 | 0.73
20 | CUACAUCAAACACUCGGUCUG [Fam1A.1 aminoacylation ribozyme variant] | 0.978 | 1.03 | 1.03 | 1.11 | 3.01 | 1.26
21 | AUACACCUAGGUAAUCGGGUG [Fam2.2 aminoacylation ribozyme variant] | 2.07 | 2.84 | 1.93 | 3.83 | 12.3 | 2.18
22 | CCUCAGUUCAAGCAAUCGGUC [Fam1B.1 aminoacylation ribozyme variant] | 1.36 | 1.17 | 1.12 | 3.37 | 5.46 | 1.03
23 | AUUCGACUAGGUCAUCGGGUG [Fam2.2 aminoacylation ribozyme variant] | 8.63 | 7.05 | 4.46 | 6.57 | 47.3 | 3.95
24 | AAGUUUAUUAAUAGUCGCAAG [Fam3.1 aminoacylation ribozyme variant] | 1.53 | 1.95 | 1.74 | 1.94 | 2.49 | 1.82
25 | AUGUUCGCUAAUAGUCGCAAG [Fam3.1 aminoacylation ribozyme variant] | 1.14 | 1.65 | 1.58 | 1.67 | 3.79 | 1.55
26 | AUUACUCUGGUCAUCGCGUGA [Fam2.1 aminoacylation ribozyme variant] | 17.7 | 16.4 | 8.13 | 18.3 | 117 | 8.12
